Data from patent publication US20110008376.

Legend:
[1] = biological target: cH5-1 (misfolded H5 of A/VN/1203/04, heat cycling)
[2] = biological target: cH5-2 (misfolded H5 of A/VN/1203/04, heat cycling at pH 2)
[3] = biological target: cH5-3 (misfolded H5 of A/VN/1203/04, heat cycling at pH 12)
[4] = biological target: cH5-4 (glycated H5 of A/VN/1203/04)
[5] = biological target: T1, dOVA-1 (misfolded ovalbumin comprising crossbeta, acid treated), P01012
T1 chain: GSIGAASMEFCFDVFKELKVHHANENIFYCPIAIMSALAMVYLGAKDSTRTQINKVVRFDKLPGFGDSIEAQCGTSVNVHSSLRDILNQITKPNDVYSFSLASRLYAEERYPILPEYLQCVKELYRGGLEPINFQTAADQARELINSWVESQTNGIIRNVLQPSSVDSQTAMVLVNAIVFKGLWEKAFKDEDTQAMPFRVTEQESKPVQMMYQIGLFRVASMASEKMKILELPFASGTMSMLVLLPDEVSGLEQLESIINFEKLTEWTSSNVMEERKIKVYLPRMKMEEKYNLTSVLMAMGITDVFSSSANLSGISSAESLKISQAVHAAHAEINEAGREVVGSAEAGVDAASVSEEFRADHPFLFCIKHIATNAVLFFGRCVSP

[6] = biological target: T2, dOVA-2 (misfolded ovalbumin comprising crossbeta, cyclic heating 30-85 C), P01012
T2 chain: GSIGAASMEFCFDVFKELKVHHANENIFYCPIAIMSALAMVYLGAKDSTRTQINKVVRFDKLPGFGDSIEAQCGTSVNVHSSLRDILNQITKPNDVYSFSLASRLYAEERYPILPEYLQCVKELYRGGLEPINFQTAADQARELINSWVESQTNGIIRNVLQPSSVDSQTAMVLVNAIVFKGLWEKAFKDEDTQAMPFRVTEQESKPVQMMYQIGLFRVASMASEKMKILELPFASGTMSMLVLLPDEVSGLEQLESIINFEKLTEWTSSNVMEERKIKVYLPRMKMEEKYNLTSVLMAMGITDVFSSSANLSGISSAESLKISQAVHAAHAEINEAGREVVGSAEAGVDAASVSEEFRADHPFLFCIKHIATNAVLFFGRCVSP

[7] = biological target: T3, dOVA-3 (misfolded ovalbumin comprising crossbeta, about 16 h at 75 C), P01012
T3 chain: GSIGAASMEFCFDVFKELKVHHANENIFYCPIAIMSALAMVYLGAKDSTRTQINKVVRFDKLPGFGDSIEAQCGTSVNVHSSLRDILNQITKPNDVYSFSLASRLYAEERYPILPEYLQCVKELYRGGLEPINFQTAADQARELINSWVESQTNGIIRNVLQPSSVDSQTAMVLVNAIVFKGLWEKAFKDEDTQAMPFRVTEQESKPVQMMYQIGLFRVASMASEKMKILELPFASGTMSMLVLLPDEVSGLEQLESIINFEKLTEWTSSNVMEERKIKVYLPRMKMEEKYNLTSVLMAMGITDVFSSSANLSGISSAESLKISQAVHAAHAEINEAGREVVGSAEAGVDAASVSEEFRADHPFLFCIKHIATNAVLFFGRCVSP

[8] = biological target: nH5 (non-treated H5 of H5N1 strain A/Vietnam/1203/04, first example)
[9] = biological target: T4, nOVA (untreated ovalbumin, 1 mg/ml in PBS), P01012
T4 chain: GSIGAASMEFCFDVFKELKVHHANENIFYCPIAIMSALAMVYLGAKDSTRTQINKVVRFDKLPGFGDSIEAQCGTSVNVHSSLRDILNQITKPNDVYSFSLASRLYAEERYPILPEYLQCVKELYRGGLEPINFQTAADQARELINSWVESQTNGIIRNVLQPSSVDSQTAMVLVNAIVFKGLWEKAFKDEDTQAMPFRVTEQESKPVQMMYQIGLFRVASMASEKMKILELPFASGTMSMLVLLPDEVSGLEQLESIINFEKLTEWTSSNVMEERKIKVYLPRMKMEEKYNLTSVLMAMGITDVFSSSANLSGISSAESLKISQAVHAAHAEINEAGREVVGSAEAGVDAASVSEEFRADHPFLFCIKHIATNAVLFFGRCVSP

B1: tissue type plasminogen activator (tPA) (protein)
chain: SYQVICRDEKTQMIYQQHQSWLRPVLRSNRVEYCWCNSGRAQCHSVPVKSCSEPRCFNGGTCQQALYFSDFVCQCPEGFAGKCCEIDTRATCYEDQGISYRGTWSTAESGAECTNWNSSALAQKPYSGRRPDAIRLGLGNHNYCRNPDRDSKPWCYVFKAGKYSSEFCSTPACSEGNSDCYFGNGSAYRGTHSLTESGASCLPWNSMILIGKVYTAQNPSAQALGLGKHNYCRNPDGDAKPWCHVLKNRRLTWEYCDVPSCSTCGLRQYSQPQFRIKGGLFADIASHPWQAAIFAKHRRSPGERFLCGGILISSCWILSAAHCFQERFPPHHLTVILGRTYRVVPGEEEQKFEVEKYIVHKEFDDDTYDNDIALLQLKSDSSRCAQESSVVRTVCLPPADLQLPDWTECELSGYGKHEALSPFYSERLKEAHVRLYPSSRCTSQHLLNRTVTDNMLCAGDTRSGGPQANLHDACQGDSGGPLVCLNDGRMTLVGIISWGLGCGQKDVPGVYTKVTNYLDWIRDNMRP
tPA mediated plasminogen activation assay [1]: cH5-1 (50% of standard)
tPA mediated plasminogen activation assay [2]: cH5-2 (150% of standard)
tPA mediated plasminogen activation assay [3]: cH5-3 (200% of standard)
tPA mediated plasminogen activation assay [4]: cH5-4 (37% of standard)
tPA activation potency, Activation at 10 µg/mL [5]: 97.4%
tPA activation potency, Activation at 25 µg/mL [5]: 136%
tPA activation potency, Activation at 10 µg/mL [6]: 107%
tPA activation potency, Activation at 25 µg/mL [6]: 107%
tPA-mediated plasminogen activation (plasmin chromogenic substrate), reference dOVA-2 at 80 µg/mL [6]: 100%
tPA/Plg activating potential, crossbeta ovalbumin standard at 10 µg/ml [6]: at 10 and 50 µg/ml, tPA/plg activation is 100% and 85%, respectively
tPA/Plg activating potential, crossbeta ovalbumin standard at 30 µg/ml [6]: The activating potential of crossbeta ovalbumin standard at 30 µg/ml is set to 100%
tPA/Plg activating potential, crossbeta ovalbumin standard at 50 µg/ml [6]: at 10 and 50 µg/ml, tPA/plg activation is 100% and 85%, respectively
tPA activation potency, Activation at 10 µg/mL [7]: 60.9%
tPA activation potency, Activation at 25 µg/mL [7]: 79%
tPA mediated plasminogen activation assay [8]: nH5 (140% of standard)
tPA activation potency, Activation at 10 µg/mL [9]: 48.8%
tPA activation potency, Activation at 25 µg/mL [9]: 48.1%
